Source: the Human Domainome abundance scans (Beltran et al. 2025)
± gives the uncertainty stated by the source.

B1: Nanos homolog 2, residues 63 to 115; numbered along this chain, P60321 (parent)
chain: CNFCKHNGESRHVYSSHQLKTPDGVVVCPILRHYVCPVCGATGDQAHTLKYCP

Variants of: B1
Test: abundance fitness (aPCA) (normalised: wild type 0, dead -1); higher = more abundant; growth selection in yeast, the domain comes from the species named
Settings: Homo sapiens

Abundance fitness: each site, then its substitutions
G40: S -0.052 ± 0.093; T -0.063 ± 0.12; Y -0.168 ± 0.15
A41: C 0.014 ± 0.1; D -0.287 ± 0.15; E -0.032 ± 0.062; F -0.379 ± 0.081; G -0.08 ± 0.074; H -0.068 ± 0.15; I -0.574 ± 0.25; K -0.173 ± 0.11; L -0.032 ± 0.089; M -0.05 ± 0.082; P -0.593 ± 0.11; Q 0.023 ± 0.14; R -0.251 ± 0.091; S -0.014 ± 0.069; T -0.089 ± 0.099; V -0.102 ± 0.068; W -0.383 ± 0.14; Y -0.184 ± 0.089
T42: A -0.162 ± 0.078; C -0.223 ± 0.096; D -0.24 ± 0.12; E -0.128 ± 0.12; F -0.395 ± 0.39; H -0.481 ± 0.23; I -0.342 ± 0.074; L -0.294 ± 0.068; M -0.153 ± 0.13; N -0.23 ± 0.14; P -0.895 ± 0.24; Q -0.023 ± 0.11; R -0.151 ± 0.07; S -0.116 ± 0.067; W -0.37 ± 0.095
G43: A -0.138 ± 0.075; C -0.421 ± 0.13; D -0.125 ± 0.1; E -0.187 ± 0.12; H -0.701 ± 0.3; I -0.744 ± 0.17; L -0.494 ± 0.08; M -0.414 ± 0.07; N -0.35 ± 0.23; P -0.718 ± 0.079; Q -0.176 ± 0.081; R -0.135 ± 0.09; T -0.467 ± 0.079; V -0.679 ± 0.092; Y -0.703 ± 0.11
D44: C -0.391 ± 0.12; E -0.334 ± 0.14; F 0.009 ± 0.15; G -0.048 ± 0.059; H -0.514 ± 0.23; I -0.457 ± 0.25; L -0.453 ± 0.084; M -0.271 ± 0.063; N -0.047 ± 0.1; P -0.274 ± 0.1; Q -0.25 ± 0.11; R -0.403 ± 0.084; S -0.294 ± 0.097; T -0.14 ± 0.075; V -0.299 ± 0.08; W -0.429 ± 0.11; Y -0.55 ± 0.14
Q45: A -0.069 ± 0.077; C -0.186 ± 0.19; D -0.015 ± 0.12; E -0.186 ± 0.09; F -0.043 ± 0.26; G -0.003 ± 0.068; I -0.214 ± 0.14; K 0.024 ± 0.11; L -0.037 ± 0.094; M 0.119 ± 0.13; N 0.085 ± 0.2; P -0.429 ± 0.15; S 0.039 ± 0.091; T -0.074 ± 0.11; V -0.047 ± 0.067; W -0.368 ± 0.18; Y -0.168 ± 0.1
A46: C -0.816 ± 0.25; D -0.426 ± 0.23; E -0.202 ± 0.082; G -0.133 ± 0.068; H -0.124 ± 0.28; I -0.308 ± 0.17; K -0.349 ± 0.094; L -0.649 ± 0.11; M -0.6 ± 0.15; N -0.694 ± 0.4; P -0.403 ± 0.13; Q -0.587 ± 0.12; R -0.322 ± 0.11; S -0.241 ± 0.13; V -0.192 ± 0.1; W -0.77 ± 0.22; Y -0.47 ± 0.12
H47: A -0.431 ± 0.11; D -0.463 ± 0.13; G -0.643 ± 0.067; I -0.981 ± 0.17; K -0.616 ± 0.2; L -0.735 ± 0.11; M -0.647 ± 0.12; N -0.591 ± 0.1; P -0.607 ± 0.19; Q -0.739 ± 0.34; R -0.443 ± 0.12; S -1.01 ± 0.29; T -0.695 ± 0.24; V -0.628 ± 0.064; W -0.781 ± 0.083; Y -0.621 ± 0.23
T48: A -0.136 ± 0.077; C -0.158 ± 0.097; D -0.347 ± 0.18; E 0.091 ± 0.093; F -0.326 ± 0.073; G -0.226 ± 0.056; H -0.363 ± 0.18; I -0.417 ± 0.22; K 0.052 ± 0.12; L -0.224 ± 0.088; M -0.12 ± 0.11; Q -0.031 ± 0.11; R -0.247 ± 0.054; S -0.19 ± 0.077; V -0.045 ± 0.079; W -0.284 ± 0.077
L49: A 0.081 ± 0.087; C -0.368 ± 0.12; D -0.046 ± 0.097; E -0.095 ± 0.11; F -0.076 ± 0.083; G -0.05 ± 0.06; H 0.169 ± 0.18; I 0.251 ± 0.16; M 0.148 ± 0.13; N -0.013 ± 0.14; P 0.026 ± 0.12; Q 0.347 ± 0.16; R 0.185 ± 0.065; S -0.071 ± 0.097; T 0.016 ± 0.11; V 0.104 ± 0.067; W -0.021 ± 0.13; Y 0.057 ± 0.15
K50: A -0.284 ± 0.09; C -0.42 ± 0.17; D -0.484 ± 0.22; E -0.185 ± 0.11; F -0.418 ± 0.17; G -0.298 ± 0.063; H -0.249 ± 0.23; I -0.809 ± 0.3; L -0.379 ± 0.099; M -0.063 ± 0.16; N -0.1 ± 0.17; P 0.145 ± 0.13; Q -0.225 ± 0.11; S -0.179 ± 0.086; T -0.117 ± 0.064
